From paper PMC9495280 (Nature structural & molecular biology, 2022)
Where a chain is given by its changes, count along the chain named. Numbers in names are those of the source. Like-named read-outs stand apart in the source and are kept apart here.

B1: KaiC-EA K224A (natural protein)
chain: MTSAEMTSPNNNSEHQAIAKMRTMIEGFDDISHGGLPIGRSTLVSGTSGTGKTLFSIQFLYNGIIEFDEPGVFVTFEETPQDIIKNARSFGWDLAKLVDEGKLFILDASPDPEGQEVVGGFDLSALIERINYAIQKYRARRVSIDSVTSVFQQYDASSVVRRELFRLVARLKQIGATTVMTTERIEEYGPIARYGVEEFVSDNVVILRNVLEGERRRRTLEILALRGTSHMKGEYPFTITDHGINIFPLGAMRLTQRSSNVRVSSGVVRLDEMCGGGFFKDSIILATGATGTGKTLLVSRFVENACANKERAILFAYEESRAQLLRNAYSWGMDFEEMERQNLLKIVCAYPESAGLEDHLQIIKSEINDFKPARIAIDSLSALARGVSNNAFRQFVIGVTGYAKQEEITGLFTNTSDQFMGAHSITDSHIEAITDTIILLQYVEIRGEMSRAINVFKMRGSWHDKAIREFMISDKGPDIKDSFRNFERIISGSPTRITVDEKSELSRIVRGVQEKGPES
B2: nighttime KaiC R217A (natural protein)
chain: B1 chain with R217A, A224K
B3: KaiC-S431A-T432E (natural protein, Synechococcus elongatus)
chain: B1 chain with A224K, E431A, A432E
B4: daytime KaiC-K457A (natural protein)
chain: B1 chain with A224K, E431A, A432E, K457A
B5: nighttime KaiC-K457A (natural protein)
chain: B1 chain with A224K, K457A
B6: nighttime KaiC I430G (natural protein)
chain: B1 chain with A224K, I430G
B7: nighttime KaiC R216A (natural protein)
chain: B1 chain with R216A, A224K
B8: nighttime KaiC H230A (natural protein)
chain: B1 chain with A224K, H230A
B9: nighttime KaiC R226A (natural protein)
chain: B1 chain with A224K, R226A
B10: KaiB-I87A (natural protein, Synechococcus elongatus, UniProt Q79PF5 1-102, looked up)
chain: MSPRKTYILKLYVAGNTPNSVRALKTLKNILEVEFQGVYALKVIDVLKNPQLAEEDKILATPTLAKVLPLPVRRIIGDLSDREKVLAGLDLLYGELQDSDDF
B11: KaiC-S431E-T432A (natural protein, Synechococcus elongatus)
chain: B1 chain with A224K

Columns and labels:
[1] = target: fluorescently labeled KaiB (Synechococcus elongatus) (UniProt Q79PF5); test: fluorescence polarisation
cryo-EM structure [2] = target: the molecule itself; test: cryo-EM structure
KaiC-S431E-T432A = target: B11; test: fluorescence polarisation
cryo-EM structure [3] = target: the molecule itself; test: cryo-EM structure; remark: listed apart in the source

| Binder | Kd [1] [µM] | other results |
| --- | --- | --- |
| B1 | 4.6 |  |
| B2 | > 13 | KaiB cooperativity index (fsKaiB as secondary titrant) [1]: 1.6 |
| B3 | > 43 | stoichiometry N (cryo-EM structure [2]): 6 |
| B4 | 7.3 |  |
| B5 | 4.6 |  |
| B6 | > 25 |  |
| B7 | > 25 |  |
| B8 | 5.9 |  |
| B9 | > 38 |  |
| B10 |  | binding result (KaiC-S431E-T432A): binds |
| B11 |  | stoichiometry N (cryo-EM structure [3]): 6 |
